Laboratory results reported in patent US6156555.

Legend:
[1] = molecular target: phenylalanyl-glycyl-phenylalanyl-glycine
[2] = molecular target: phenylalanyl-glycyl-phenylalanyl-hydroxylglycine

Substance	Enzyme activity n mole/h/ml medium; substrate PheGlyPheGly, product PheGlyPhe-hydroxyGly [1]	Enzyme activity n mole/h/ml medium; substrate PheGlyPhehydroxyGly, product PheGlyPhe-NH2 + glyoxylic acid [2]
enzyme expressed by plasmid SV-a (rat; signal sequence + N-terminal domain) (from UniProt P14925)	2.8 nmol/h/mL	< 2 nmol/h/mL
enzyme expressed by plasmid SV-b (rat; signal sequence + C-terminal domain) (from UniProt P14925)	0.4 nmol/h/mL	10.8 nmol/h/mL
enzymes expressed by plasmid SV-203 (rat; signal sequence + N-terminal domain + C-terminal domain) (from UniProt P14925)	2.5 nmol/h/mL	4.2 nmol/h/mL
